From patent publication CN117567612A (CHINA RESOURCES BIOMEDICAL CO LTD, dated 2024)

What was measured:
[1] = target: T1, CLDN18.2; assay: flow cytometry on CLDN18.2-overexpressing cells, MFI fitted in GraphPad Prism
T1 construct: For the EC50 it stood on overexpressing cells; also called claudin18.2; CLDN18.2过表达细胞

[2] = target: T1, CLDN18.2; assay: kinetics, method not stated

B1: CLDN-BC-P1022-hH1 (antibody, V domains shown)
VH: QVQLVQSGGGLVQPGGSLRLSCAASGFTFSSYEMNWVRQAPGKGLEWVAYITGSGRTMYYADSVKGRITISRDNAKNSLYLQMNSLRAEDTAVYYCARYWNYAGGMDVWGQGTLVTVSS
VL: DIQMTQSPSSVSASVGDRVTITCRASQGISSWLAWYQQKPGKAPKLLIYAASSLQSGVPSRFSGSGSGTDFTLTISSLQPEDFATYYCQQANSFPLTFGGGTKVEIK
notes: detected with anti-human IgG Fc); P1022 is the only antibody of the application; also called CLN-P1022-hH1; 全人源抗体P1022
Work on B1 yielded an EC50 [1] of 0.12 µg/mL.

B2: IMAB362 (antibody, V domains shown)
VH: QVQLQQPGAELVRPGASVKLSCKASGYTFTSYWINWVKQRPGQGLEWIGNIYPSDSYTNYNQKFKDKATLTVDKSSSTAYMQLSSPTSEDSAVYYCTRSWRGNSFDYWGQGTTLTVSS
VL: DIVMTQSPSSLTVTAGEKVTMSCKSSQSLLNSGNQKNYLTWYQQKPGQPPKLLIYWASTRESGVPDRFTGSGSGTDFTLTISSVQAEDLAVYYCQNDYSYPFTFGSGTKLEIKR
B2 gave a Kd [2] of 4.17 nM, a koff [2] of 0.00158 s⁻¹ and a kon [2] of 378000 M⁻¹ s⁻¹. The EC50 [1] was 1.75 µg/mL.
